Publication PMC4472530 (2016)

T1: RLC-depleted cardiac beta-myosin (myosin heavy chain) (Sus scrofa, UniProt P79293)
T1 chain: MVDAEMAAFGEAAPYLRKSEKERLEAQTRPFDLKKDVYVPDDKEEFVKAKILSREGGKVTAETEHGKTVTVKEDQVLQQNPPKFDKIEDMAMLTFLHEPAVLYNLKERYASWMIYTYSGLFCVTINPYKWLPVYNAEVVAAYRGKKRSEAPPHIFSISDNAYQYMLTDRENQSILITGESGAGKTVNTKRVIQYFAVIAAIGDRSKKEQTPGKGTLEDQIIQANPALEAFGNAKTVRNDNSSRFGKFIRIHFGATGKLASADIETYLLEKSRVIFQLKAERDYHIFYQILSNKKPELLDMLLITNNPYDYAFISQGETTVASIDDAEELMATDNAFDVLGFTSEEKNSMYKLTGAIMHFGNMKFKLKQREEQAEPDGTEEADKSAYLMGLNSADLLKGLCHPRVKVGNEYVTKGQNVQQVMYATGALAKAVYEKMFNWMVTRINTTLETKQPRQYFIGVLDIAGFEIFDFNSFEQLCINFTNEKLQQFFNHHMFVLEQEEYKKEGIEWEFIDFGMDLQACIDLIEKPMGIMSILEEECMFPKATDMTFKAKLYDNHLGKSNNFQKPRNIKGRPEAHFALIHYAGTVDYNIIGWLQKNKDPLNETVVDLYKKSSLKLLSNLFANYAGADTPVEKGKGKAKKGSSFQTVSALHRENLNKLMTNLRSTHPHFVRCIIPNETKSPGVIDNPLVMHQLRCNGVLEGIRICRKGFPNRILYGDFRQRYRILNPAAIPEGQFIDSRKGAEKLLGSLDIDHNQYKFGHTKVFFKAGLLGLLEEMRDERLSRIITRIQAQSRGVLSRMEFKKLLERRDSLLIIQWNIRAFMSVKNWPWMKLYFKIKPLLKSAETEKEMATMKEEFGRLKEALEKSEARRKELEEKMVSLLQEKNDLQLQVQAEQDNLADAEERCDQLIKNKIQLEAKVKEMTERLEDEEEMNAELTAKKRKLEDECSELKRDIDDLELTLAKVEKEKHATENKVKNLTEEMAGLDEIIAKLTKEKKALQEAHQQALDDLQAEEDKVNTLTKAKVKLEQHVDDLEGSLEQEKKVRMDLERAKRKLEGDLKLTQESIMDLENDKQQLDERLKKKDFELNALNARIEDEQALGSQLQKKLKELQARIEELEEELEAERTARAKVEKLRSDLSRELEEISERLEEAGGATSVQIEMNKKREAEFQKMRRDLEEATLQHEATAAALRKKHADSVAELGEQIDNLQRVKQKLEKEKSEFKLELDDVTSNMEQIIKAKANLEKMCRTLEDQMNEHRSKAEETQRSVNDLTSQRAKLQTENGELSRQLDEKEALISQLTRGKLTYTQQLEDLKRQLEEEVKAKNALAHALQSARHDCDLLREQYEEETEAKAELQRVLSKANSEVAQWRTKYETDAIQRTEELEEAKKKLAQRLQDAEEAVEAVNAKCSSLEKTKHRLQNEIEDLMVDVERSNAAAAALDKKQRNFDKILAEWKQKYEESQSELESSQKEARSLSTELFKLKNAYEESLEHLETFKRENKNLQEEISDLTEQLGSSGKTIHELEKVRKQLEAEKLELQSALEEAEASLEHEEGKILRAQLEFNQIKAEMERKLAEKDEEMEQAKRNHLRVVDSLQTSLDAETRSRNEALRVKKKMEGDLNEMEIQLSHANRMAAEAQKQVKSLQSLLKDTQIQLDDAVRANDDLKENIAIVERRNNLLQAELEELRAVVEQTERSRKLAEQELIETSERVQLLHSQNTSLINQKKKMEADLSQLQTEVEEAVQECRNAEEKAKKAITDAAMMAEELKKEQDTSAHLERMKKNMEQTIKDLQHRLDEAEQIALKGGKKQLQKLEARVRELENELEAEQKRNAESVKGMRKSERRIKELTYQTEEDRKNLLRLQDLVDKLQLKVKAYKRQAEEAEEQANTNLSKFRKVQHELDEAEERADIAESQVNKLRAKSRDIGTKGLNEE


Target: T1, RLC-depleted cardiac beta-myosin …
Experiment: SDS-PAGE titration/co-precipitation binding isotherm

| Kd | Binder |
| --- | --- |
| 3.2 µM | Myosin regulatory light chain 2, ventricular (protein) APKKAKKRAGGANSNVFSMFEQTQIQEFKEAFTIMDQNRDGFIDKNDLRDTFAALGRVNVKNEEIDEMIKEAPGPINFTVFLTMFGEKLKGADPEETILNAFKVFDPEGKGVLKADYVREMLTTQAERFSKEEVDQMFAAFPPDVTGNLDYKNLVHIITHGEEKD |
| 4.9 µM | Myosin regulatory light chain 2, ventricular (protein) APKKAKKRAGGANSNVFSMFEQTQIQEFKEAFTIMDQNRDGFIDKNDLRDTFAALGRVNVKNEEIDEMIKEAPGPINFTVFLTMFGEKLKGAAPEETILNAFKVFDPEGKGVLKADYVREMLTTQAERFSKEEVDQMFAAFPPDVTGNLDYKNLVHIITHGEEKD |
